Experimental data as given in patent publication US20060039900A1 (Janssen / Centocor, published 2006).

Tests used:
[1] = biological target: T1, murine tissue factor on B6F10 melanoma cells (murine, UniProt P20352 29-294); assay: flow cytometry (FACS) on B6F10 melanoma cells expressing mTF
T1 construct: whole, on cells; also called cell-associated mTF
T1 sequence (looked up): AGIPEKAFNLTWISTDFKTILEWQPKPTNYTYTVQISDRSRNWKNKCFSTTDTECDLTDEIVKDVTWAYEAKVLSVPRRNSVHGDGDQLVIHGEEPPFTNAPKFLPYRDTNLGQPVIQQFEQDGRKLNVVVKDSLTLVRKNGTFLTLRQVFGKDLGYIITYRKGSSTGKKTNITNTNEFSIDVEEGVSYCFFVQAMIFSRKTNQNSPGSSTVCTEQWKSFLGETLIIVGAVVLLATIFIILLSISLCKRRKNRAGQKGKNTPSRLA

[2] = biological target: T2, murine tissue factor from murine brain extracts (murine, UniProt P20352 29-294); assay: cell-based or functional assay
T2 sequence (looked up): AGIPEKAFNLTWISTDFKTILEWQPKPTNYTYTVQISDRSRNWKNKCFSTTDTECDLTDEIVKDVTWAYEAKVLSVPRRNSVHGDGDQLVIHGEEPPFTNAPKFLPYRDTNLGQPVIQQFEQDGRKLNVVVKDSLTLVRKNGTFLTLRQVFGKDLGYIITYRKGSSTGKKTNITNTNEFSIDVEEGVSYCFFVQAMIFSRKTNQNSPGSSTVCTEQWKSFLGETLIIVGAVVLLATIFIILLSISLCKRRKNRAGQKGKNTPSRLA

Row | Binder | EC50 [1] | EC50 Conc. (ug/ml) for human plasma (inhibition of fibrin clot formation, murine brain extracts as source of mTF) [2]
1 | PHD127 Fab (Fab, V domains shown, Human Fab from the HuCAL library) VH: QVQLVQSGAEVKKPGESLKISCKGSYSFTNSWISWVRQMPGKGLEWMGIIDPDDSYTSYSPSFQGQVTISADKSISTAYLQWSSLKASDTAMYYCARGAGYGRMFGDVWGQGTLVTVSS VL: DIELTQPPSVSVAPGQTARISCSGDNLGSYYASWYQQKPGQAPVLVIYQDDNRPSGIPERFSGSNSGNTATLTISGTQAEDEADYYCGAYTYSTSWVFGGGTKLTVLG | 4.35 nM | 0.82 µg/mL
2 | PHD103 Fab (Fab, V domains shown) VH: QVQLVQSGAEVKKPGESLKISCKGSGYSFSNSWIAWVRQMPGKGLEWMGGIIGPGHSYTKYSPSFQGQVTISADKSISTAYLQWSSLKASDTAMYYCARINMGYFDYWGQGTLVTVSS VL: DIELTQPPSVSVAPGQTARISCSGDSLGLKKFVSWYQQKPGQAPVLVIYDDSNRPSGIPERFSGSNSGNTATLTISGTQAEDEADYYCGTYDQTIGHDVVFGGGTKLTVLG | – | 63.3 µg/mL
3 | PHD126 Fab (Fab, V domains shown) VH: QVQLVQSGAEVKKPGESLKISCKGSYSFSNYWIGWVRQMPGKGLEWMGFIDPDDSDTNYSPSFQGQVTISADKSISTAYLQWSSLKASDTAMYYCARALYMQGGSFDSWGQGTLVTVSS VL: DIELTQPPSVSVAPGQTARISCSGDNLGSYYVSWYQQKPGQAPVLVIYRDTDRPSGIPERFSGSNSGNTATLTISGTQAEDEADYYCQSYDYGVSNQVFGGGTKLTVLG | – | 0.23 µg/mL
4 | PHD104 Fab (Fab, V domains shown) VH: QVQLVQSGAEVKKPGESLKISCKGSYSFTSNWIGWVRQMPGKGLEWMGWIYPSDSMTRYSPSFQGQVTISADKSISTAYLQWSSLKASDTAMYYCARYLFGLFDNWGQGTLVTVSS VL: DIELTQPPSVSVAPGQTARISCSGDNLGSYYVSWYQQKPGQAPVLVIYNDNNRPSGIPERFSGSNSGNTATLTISGTQAEDEADYYCATYDSSTDVFGGGTKLTVLG | – | 23.8 µg/mL
